Measured values from article PMC11672532.

Target: c-Met ((A549 lung cancer cells)) (UniProt P08581)
Assay: flow cytometry on cells
Details: 5' and 3' cholesterol on ASO strand; Intact A549 or HeLa cells, FAM-labeled DNA, flow cytometry (30 min in Fig S8); binding buffer and temperature not given in the material

Chain of c-Met ((A549 lung cancer cells)) (P08581 25-1390): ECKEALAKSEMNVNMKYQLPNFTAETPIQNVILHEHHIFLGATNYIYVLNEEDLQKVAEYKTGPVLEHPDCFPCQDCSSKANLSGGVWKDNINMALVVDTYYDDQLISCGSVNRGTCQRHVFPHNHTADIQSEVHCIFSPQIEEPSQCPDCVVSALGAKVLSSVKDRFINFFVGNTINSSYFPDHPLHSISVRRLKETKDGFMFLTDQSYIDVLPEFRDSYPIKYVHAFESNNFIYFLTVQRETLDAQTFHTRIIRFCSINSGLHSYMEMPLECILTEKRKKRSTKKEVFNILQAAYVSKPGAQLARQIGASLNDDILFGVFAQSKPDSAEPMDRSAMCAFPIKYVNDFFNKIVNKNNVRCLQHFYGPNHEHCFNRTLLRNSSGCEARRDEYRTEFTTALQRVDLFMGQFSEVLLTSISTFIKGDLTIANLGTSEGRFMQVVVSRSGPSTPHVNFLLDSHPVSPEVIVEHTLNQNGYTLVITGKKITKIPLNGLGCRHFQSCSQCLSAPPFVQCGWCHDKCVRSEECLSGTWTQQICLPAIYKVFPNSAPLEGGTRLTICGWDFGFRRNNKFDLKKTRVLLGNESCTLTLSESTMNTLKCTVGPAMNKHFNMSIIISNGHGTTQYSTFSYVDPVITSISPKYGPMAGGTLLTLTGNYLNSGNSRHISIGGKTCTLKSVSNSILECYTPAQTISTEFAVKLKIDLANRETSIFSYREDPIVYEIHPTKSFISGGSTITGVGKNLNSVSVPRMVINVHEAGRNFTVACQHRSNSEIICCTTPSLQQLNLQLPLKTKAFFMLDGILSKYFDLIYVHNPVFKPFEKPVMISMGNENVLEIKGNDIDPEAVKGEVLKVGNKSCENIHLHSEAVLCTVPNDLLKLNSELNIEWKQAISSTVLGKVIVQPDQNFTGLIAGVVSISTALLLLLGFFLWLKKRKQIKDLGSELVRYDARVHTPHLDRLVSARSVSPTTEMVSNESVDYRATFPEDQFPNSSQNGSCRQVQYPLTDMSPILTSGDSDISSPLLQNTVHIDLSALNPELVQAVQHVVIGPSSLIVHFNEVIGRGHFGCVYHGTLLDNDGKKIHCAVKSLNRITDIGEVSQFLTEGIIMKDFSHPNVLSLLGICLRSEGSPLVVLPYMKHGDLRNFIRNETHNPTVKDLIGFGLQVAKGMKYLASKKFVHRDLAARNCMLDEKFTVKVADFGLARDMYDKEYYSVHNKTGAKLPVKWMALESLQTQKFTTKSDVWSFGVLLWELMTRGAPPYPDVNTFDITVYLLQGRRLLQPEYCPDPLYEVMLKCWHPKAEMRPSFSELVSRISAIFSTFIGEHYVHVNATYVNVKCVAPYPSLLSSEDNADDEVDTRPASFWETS

TGGATGGTAGCTCGGTCGGGGTGGGTGGGTTGGCAAGTCT / GGTGTCACAGGCGGGACCCCCGACCGA / GTCCCGCCTGTGACACCTCCCGCCTGTGACATGCATTTTTTTTCCCGCCTGTGACATGCATTGTCCCGCCTGTGACACC / CAACCCACCCGGTGTCACAGGCGGGAC [NT-Ch2-Apt (DNA nanotweezer)]
binding signal (fold (A549 / HeLa fluorescence)): 2.5
